The results in this text go back to patent US20250019451A1 (HIFIBIO, published 2025).

Some results are limits rather than exact numbers.

The target of one assay is T1, human CCR4 (human, UniProt P51679 1-360).
T1 construct: Expressed on cells for flow cytometry; also called hCCR4
T1 sequence: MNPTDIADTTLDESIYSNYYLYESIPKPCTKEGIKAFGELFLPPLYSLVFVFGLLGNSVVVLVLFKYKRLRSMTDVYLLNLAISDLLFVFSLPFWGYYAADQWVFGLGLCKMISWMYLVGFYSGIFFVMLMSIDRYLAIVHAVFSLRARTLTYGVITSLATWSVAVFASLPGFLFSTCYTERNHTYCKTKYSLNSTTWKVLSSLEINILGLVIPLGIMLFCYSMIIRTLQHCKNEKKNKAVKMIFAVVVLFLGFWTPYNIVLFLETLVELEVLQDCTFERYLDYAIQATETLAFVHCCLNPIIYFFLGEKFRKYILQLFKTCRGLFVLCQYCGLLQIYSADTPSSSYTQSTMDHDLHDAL
As to the kind of experiment: flow cytometry on transiently transfected ExpiHEK293 cells. (In flow cytometry, cells or beads pass a laser one at a time.)

Assay [1] concerns the target T2, human CCR8 (human, UniProt P51685 1-355).
T2 construct: also called hCCR8; chemokine (C-C motif) receptor 8
As to the kind of experiment: flow cytometry on transiently transfected ExpiHEK293 cells, 50 nM antibody. How it is done: (§1) Briefly, purified antibodies (saturating concentration of 50 nM, FIG. 3A or concentration range from 100 nM, 3-fold dilution, FIGS. 3B-3C) were incubated with 1×10⁵ ExpiHEK293 cells transiently transfected with either human (SEQ ID NO:11; Uniprot/Swiss-Prot: P51685), mouse CCR8 (SEQ ID NO: 64; Uniprot/Swiss-Prot: P56484), or cynoCCR8 (SEQ ID NO: 65; Uniprot/Swiss-Prot: G7NYJ2) fused to GFP protein via cleavable linker, for 30 minutes at 4° C. After washing, secondary anti-human-AF647 antibody (Jackson ImmunoResearch; West Grove, PA) was incubated at 12 nM for 30 minutes in PBS. After washing, cell pellets were resuspended in 50 μL PBS and samples were analyzed by flow cytometry on iQue cytometer (Sartorious, Goettingen, Germany) using Forecyt software (Intellicyt, Ann Arbor, MI). Mean of fluorescence intensity for the specific signal among GFP+ cells are represented in FIGS. 3A-3C. Titration curve of cross-reactive antibodies against mouse CCR8 and cyno CCR8 are presented in FIGS. 3B and 3C, respectively.

Assay [2] has as its target T3, cynoCCR8 (cynomolgus, UniProt O97665 1-356 (rhesus entry)).
T3 construct: Transiently expressed on ExpiHEK293 cells, fused to GFP via cleavable linker; also called cynomolgus CCR8
The assay can be described thus: flow cytometry titration on ExpiHEK293 cells transiently expressing cynoCCR8. How it is done: as §1

In assay [3] the target is T4, mouse CCR8 (mouse, UniProt P56484 1-353).
T4 construct: Transiently expressed on ExpiHEK293 cells, fused to GFP via cleavable linker
T4 sequence: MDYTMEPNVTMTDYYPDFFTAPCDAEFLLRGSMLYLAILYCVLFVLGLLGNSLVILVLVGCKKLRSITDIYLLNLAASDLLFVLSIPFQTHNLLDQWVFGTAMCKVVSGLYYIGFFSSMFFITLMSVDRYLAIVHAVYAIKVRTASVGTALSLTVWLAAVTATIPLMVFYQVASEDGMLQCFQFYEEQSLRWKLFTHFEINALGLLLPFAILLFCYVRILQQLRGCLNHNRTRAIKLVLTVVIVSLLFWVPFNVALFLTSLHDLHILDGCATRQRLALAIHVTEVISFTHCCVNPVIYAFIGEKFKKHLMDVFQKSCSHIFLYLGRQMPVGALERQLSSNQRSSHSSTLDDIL
As to the kind of experiment: flow cytometry titration on ExpiHEK293 cells transiently expressing mouse CCR8. How it is done:
as §1

The target in assay [4] is T2, human CCR8. As to the kind of experiment: cell-based or functional assay.
Assay [5] concerns the target T3, cynoCCR8. As to the kind of experiment: flow cytometry on ExpiHEK293 cells transiently expressing cynoCCR8. How it is done: as §1
In assay [6] the target is T4, mouse CCR8. The assay can be described thus: flow cytometry on ExpiHEK293 cells transiently expressing mouse CCR8. How it is done: as §1
Assay [7] has as its target T2, human CCR8. As to the kind of experiment: flow cytometry on ExpiHEK293 cells transiently expressing human CCR8, 50 nM antibody. How it is done:
as §1

T3 sequence (O97665 other isoform, or with tags, fused parts or gaps): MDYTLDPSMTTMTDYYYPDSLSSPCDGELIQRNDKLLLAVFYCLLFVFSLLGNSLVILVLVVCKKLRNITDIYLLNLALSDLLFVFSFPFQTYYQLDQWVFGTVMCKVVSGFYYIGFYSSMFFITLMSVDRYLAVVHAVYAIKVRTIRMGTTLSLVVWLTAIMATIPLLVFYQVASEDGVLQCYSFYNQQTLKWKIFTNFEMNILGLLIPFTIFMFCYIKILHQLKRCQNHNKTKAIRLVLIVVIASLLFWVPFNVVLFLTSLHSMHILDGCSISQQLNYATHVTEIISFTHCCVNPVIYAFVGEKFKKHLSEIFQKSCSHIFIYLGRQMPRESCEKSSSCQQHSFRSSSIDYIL

B1: HFB11-21 (antibody, human IgG1, V domains shown)
VH: QVQLQQPGAELVKPGASVKLSCKASGYTFISYWMHWVKQRPGRGLEWIGRIDPNSGKTKYNEKFKTKATLTVDKSSSTAYMHLNSLTSDDSAVYYCAREGWGDYWGQGTTLTVSS
VL: DIVLTQSPASLAVSLGQRATISCRASESVDNYGISFMHWYQQKPGQPPRLLIYRASNLASGIPARFSGSGSSTDFTLTINPVETDDIATYYCQQSNKDPRTFGGGTKLEIK
notes: also called HFB-21
As to B1, the binding result with human CCR4 was “no binding (tested: 50 nM)”; with human CCR8 [1], “binds”. Moreover, the EC50 in the assay with cynoCCR8 [2] turned out to be 15.8 nM; in the assay with mouse CCR8 [3], 53 nM.

B2: HFB11-10 parental antibody (non-humanized) in ADCC enhanced format (antibody, V domains shown)
VH: EVQLVETGGGLVQPKGSLKLSCAASGFRFNTNAMNWVRQAPGKDLEWVARIRSKSNNYATYYADSVKDRFTISRDDSQSMLYLQMNNVKTEDTAMYYCVRGSDNNYYYAMDYWGQGTSVTVSS
VL: DIVMTQAAPSVPVTPGESVSISCRSSKSLLHSNGNTYLYWFLQRPGQSPQLLIYRMSNLASGVPDRFSGSGSGTAFTLRISRVEAEDVGVYYCMQHLEYPFTFGSGTKLEIK
Turning to B2, the “ADCC NK killing of M300.19 cells expressing low copies of CCR8, EC50” value with human CCR8 [4] is 0.003 nM.

B3: HFB11-3 (antibody, human IgG1, V domains shown)
VH: EVQLVESGGGLVQPQGSLKLSCAASGFSFNTYAMNWVRQAPGKGLQWVARIRSKSNNYATYYADSVKDRFTISRDDSESMLYLQMNNLKTEDAAMYYCVRGKDANYFYAMDYWGQGTSVTVSS
VL: DIVMTQAAPSVPVTPGESVSISCRSSKSLLHSNGNTYLYWFLQRPGQSPQLLIYRMSNLASGVPDRFSGSGSGTAFTLRISRVEAEDVGVYYCMQHLEYPFTFGAGTKLELK
Consider B3, for which the binding result with human CCR4, with cynoCCR8 [5] and with mouse CCR8 [6] was “no binding (tested: 50 nM)” throughout.

B4: HFB11-2 (antibody, human IgG1, V domains shown)
VH: EVQLVESGGGLVQPKGSLKLSCAASGFSFNTYAMNWVRQAPGKGLEWVARIRSKSNNYATYYADSVKDRFTISRDDSERMLYLQMNNLKTEDTAMYYCVRGGSYYSNHYFDYWGQGTTLTVSS
VL: DIVMTQAAPSVPVTPGESVSISCRSSKSLLHSNGNTYLYWFLQRPGQSPQLLIYQMSNLASGVPDRFSGSGSGTAFTLRISRVEAEDVGVYYCMQHLEYPFTFGAGTKLELK
With B4, the binding result in the assay with human CCR4 was “no binding (tested: 50 nM)”; with human CCR8 [1] it was “binds”. In the assay with mouse CCR8 [3], this molecule showed an EC50 of less than 1 nM.

B5: HFB11-5 (antibody, human IgG1, V domains shown)
VH: EVQLVESGGGLVQPRGSLKLSCTASGFSFNAYAMNWVRQAPGKGLEWVARIRTKSNNYATYYADSVKDRFTISRDDSESMLYLQMKNLKTEDTAMYYCVRGGYGNGGYYFDYWGQGTTLTVSS
VL: DIVMTQAAPSVTVTPGESASISCRSSKSLLHRNGNSYLYWFLQRPGQSPQLLIYRISNLASGVPDRFSGSGSGTAFTLRISRVEAEDVGVYYCMQHLEYPFTFGSGTKLEIK
With B5, the binding result with human CCR4 is recorded as “no binding (tested: 50 nM)”; with cynoCCR8 [5], “no binding (tested: 50 nM)”; with mouse CCR8 [6], “no binding (tested: 50 nM)”; in the assay with human CCR8 [7], “binds”.

B6: HFB11-19 (antibody, human IgG1, V domains shown)
VH: QVQLQQSGAELVKPGASVKLSCKASGYTFTDYIIHWVKQRSGQGLEWIGWFSPRNNYVKYNERFTDKATLTADKSSNTVYMELSSLTSEDSAVYFCSRHGRNSIGFAYWGQGTLVTVSA
VL: DIVMTQAAPSVPVTPGESVSISCRSSKSLLNSNGNTYLYWFLQRPGQSPQLLIYRMSNLASGVPDRFSGSGSGTAFTLRISRVEAEDVGVYYCMQHLEYPYTFGGGTKLEIK
B6: the binding result is “no binding (tested: 50 nM)” in the assay with human CCR4 and “binds” with human CCR8 [1]. Also, in the assay with cynoCCR8 [2], the EC50 is 1.8 nM.

B7: HFB11-10 (antibody, V domains shown)
VH: EVQLVETGGGLVQPKGSLKLSCAASGFRFNTNAMNWVRQAPGKDLEWVARIRSKSNNYATYYADSVKDRFTISRDDSQSMLYLQMNNVKTEDTAMYYCVRGSDNNYYYAMDYWGQGTSVTVSS
VL: DIVMTQAAPSVPVTPGESVSISCRSSKSLLHSNGNTYLYWFLQRPGQSPQLLIYRMSNLASGVPDRFSGSGSGTAFTLRISRVEAEDVGVYYCMQHLEYPFTFGSGTKLEIK
notes: Mouse variable domains; also called H11-10
For B7, the binding result with human CCR4, with cynoCCR8 [5] and in the assay with mouse CCR8 [6] was “no binding (tested: 50 nM)” each time.

B8: HFB11-8 (antibody, human IgG1, V domains shown)
VH: EVQLVETGGGLVQPKGSLKLSCAASGFRFNTNAMNWVRQAPGKGLEWVARIRSKSNNYATHYVDSVKDRFTVSRDDSQSMLYLQMNNLKAEDTAMYYCVRGSDNNYYYAMDYWGQGTSVTVSS
VL: DIVMTQAAPSVPVTPGESVSISCRSSKSLLHSNGNTYLYWFLQRPGQSPQLLIYRMSNLASGVPDRFSGSGSGTSFTLRISRVEVEDVGVYYCMQHLEYPFTFGSGTKLEIK
In the case of B8, the binding result with human CCR4 is reported as “no binding (tested: 50 nM)”; with cynoCCR8 [5], “no binding (tested: 50 nM)”; with mouse CCR8 [6], “no binding (tested: 50 nM)”; with human CCR8 [7], “binds”.

For orientation: EC50 means the concentration at which the effect is half-maximal. A high value points to a need for much substance.
